Patent publication US20220211817A1, “CONTROLLED-RELEASE CNP AGONISTS WITH LOW NPR-C BINDING” (ASCENDIS PHARMA GROWTH DISORDERS A/S, priority 2016, published 2022)
Read-outs that look alike come from different tables or passages of the source. Bridge positions count the residues as written; N and C are the ends. Side chains are listed from the residue outwards. Ends that are not written are not given here. reversible linker = not defined here

How the values were obtained:
Male Crl:CD1(ICR) mice = assay: Evaluation of cardiovascular effects in the conscious telemetered mouse (subcutaneous administration); assay type: in vivo; details: 800 μg CNP-38 (eq)/kg subcutaneous; for change in MAP at the 5, 15, and 30 min post dose sampling time points (in words): compared to predose
Description: Male Crl:CD1(ICR) mice (age range 8-13 weeks and body weight range 27.3-35.6 g at start of dosing) were surgically implanted with a TA11PA-C10 telemetry transmitter (Data Sciences International (DSI)) in the carotid artery. The body of the transmitter was placed subcutaneously in the lateral flank of the mouse. The mice were dosed subcutaneously in a latin square crossover design with at least 72 hours between dosing occasions. […] At least four mice were included at each dose level. […] Each time point was presented as the average value of five minute's recording prior to the time point. The monitoring period was selected to cover exposure to the test items both prior to and after Tmax.

[1] = Pharmacokinetic profile of CNP-38 after subcutaneous single-dose administration to cynomolgus monkeys; details: single s.c. 40 μg/kg
Description: This study was performed in order to test the pharmacokinetics of CNP-38 after subcutaneous (s.c.) administration in cynomolgus monkeys. Three male monkeys (2-4 years old, 3-5 kg) received a single s.c. injection at a dose of 40 μg/kg of CNP-38.
Method: Plasma levels of CNP were analysed using a commercially available competitive radioimmuno-assay (RK-012-03, Phoenix Pharmaceuticals, CA). The assay was applied essentially as described by the manufacturer.
A few changes to the supplied assay protocol were made. These changes included using in-house CNP calibrant and QC samples to secure consistency between assay runs.

healthy volunteers [2] = details: Phase 1 study; cited from earlier work
[3] = after iv administration; cited from earlier work
healthy volunteers [4] = details: CNP injection; cited from earlier work
recombinant human NEP = molecular target: T1, recombinant human NEP (Homo sapiens, UniProt P08473); assay: Digest of CNP variants by Neutral Endopeptidase in vitro; assay type: in vitro ADME; details: 100 μg CNP equivalents/mL, pH 7.4, 37° C., up to 4 days, normalized to mean CNP-34 or CNP-38 half life
T1 construct: purchased Enzo Life Sciences GmbH, Lörrach, Germany
T1 sequence (P08473 whole entry): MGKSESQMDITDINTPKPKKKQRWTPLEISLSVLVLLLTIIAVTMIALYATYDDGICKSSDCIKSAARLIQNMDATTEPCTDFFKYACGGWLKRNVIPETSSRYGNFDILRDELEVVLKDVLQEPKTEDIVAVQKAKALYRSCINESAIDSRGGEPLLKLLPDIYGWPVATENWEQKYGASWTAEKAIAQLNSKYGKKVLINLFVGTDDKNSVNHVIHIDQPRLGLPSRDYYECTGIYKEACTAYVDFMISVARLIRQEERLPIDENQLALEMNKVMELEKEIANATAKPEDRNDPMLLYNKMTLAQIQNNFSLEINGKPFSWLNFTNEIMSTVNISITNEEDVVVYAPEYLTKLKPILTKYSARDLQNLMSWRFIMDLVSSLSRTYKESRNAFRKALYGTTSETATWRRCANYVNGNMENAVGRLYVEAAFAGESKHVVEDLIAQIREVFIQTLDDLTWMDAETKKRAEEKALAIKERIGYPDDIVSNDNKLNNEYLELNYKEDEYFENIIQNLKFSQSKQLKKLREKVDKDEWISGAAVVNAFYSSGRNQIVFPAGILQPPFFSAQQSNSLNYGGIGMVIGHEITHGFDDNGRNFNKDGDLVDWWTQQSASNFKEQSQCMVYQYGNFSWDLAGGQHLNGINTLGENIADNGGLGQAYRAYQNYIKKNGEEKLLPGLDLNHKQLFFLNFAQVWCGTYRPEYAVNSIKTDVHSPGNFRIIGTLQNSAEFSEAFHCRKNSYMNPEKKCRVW
Source text: Samples were taken at different time intervals. […] The resulting reaction products were assigned using HPLC-MS.

[5] = Pharmacokinetic study of permanent conjugate 12 g in cynomolgus monkeys; assay type: in vivo
Description: As internal standard deuterated CNP-38 peptide was used.
After 4 hours incubation at 37° C. […] The eluates were transferred into vials. 10 μL were injected into the UPLC-MS system.

[6] = cynomolgus monkey, in vivo, sc
[7] = Pharmacokinetic study of transient conjugates 10f and 11i in cynomolgus monkeys; details: single subcutaneous, 0.146 mg CNP-38 eq/kg
[8] = Pharmacokinetic profile of conjugate 11i after subcutaneous single-dose administration to cynomolgus monkeys; details: single s.c. 40 μg CNP-38 eq/kg
Description: As internal standard deuterated CNP-38 conjugate was used.
200 μL of the supernatant were transferred into a new well-plate and evaporated to dryness (under a gentle nitrogen stream at 35° C.). […] After 3 hours incubation at 37° C. […] 10 μL were injected into the UHPLC-MS system.

CC[C@H](C)[C@@H]1NC(=O)[C@H](CCCNC(=N)N)NC(=O)[C@H](CC(=O)O)NC(=O)[C@H](CC(C)C)NC(=O)[C@H](CCCCN)NC(=O)[C@H](CC(C)C)NC(=O)CNC(=O)[C@H](Cc2ccccc2)NC(=O)[C@@H](NC(=O)CNC(=O)[C@H](CCCCN)NC(=O)[C@H](CO)NC(=O)[C@H](CC(C)C)NC(=O)CNC(=O)[C@H](CCCCN)NC(=O)[C@H](CCCCN)NC(=O)[C@H](CC(N)=O)NC(=O)[C@H](C)NC(=O)CNC(=O)[C@H](CCCCN)NC(=O)[C@H](Cc2ccc(O)cc2)NC(=O)[C@H](CCCCN)NC(=O)[C@H](CCCNC(=N)N)NC(=O)[C@H](C)NC(=O)[C@H](CC(N)=O)NC(=O)[C@@H]2CCCN2C(=O)[C@H](Cc2c[nH]cn2)NC(=O)[C@H](CCC(=O)O)NC(=O)[C@H](CCC(N)=O)NC(=O)[C@@H](N)CC(C)C)CSSC[C@@H](C(=O)O)NC(=O)CNC(=O)[C@H](CC(C)C)NC(=O)CNC(=O)[C@H](CO)NC(=O)[C@H](CCSC)NC(=O)[C@H](CO)NC(=O)CNC1=O [CNP-38, reference compound]
HR (heart rate) (Male Crl:CD1(ICR) mice): not impacted
MAP 5 min post dose (mean ± SD) (Male Crl:CD1(ICR) mice): 102.0 ± 7.5 mmHg
MAP 15 min post dose (mean ± SD) (Male Crl:CD1(ICR) mice): 89.5 ± 29.4 mmHg
MAP 30 min post dose (mean ± SD) (Male Crl:CD1(ICR) mice): 99.5 ± 25.2 mmHg
change in MAP at the 5, 15, and 30 min post dose sampling time points (in words) (Male Crl:CD1(ICR) mice): significant decrease in MAP
MAP predose (mean ± SD) (Male Crl:CD1(ICR) mice; predose): 106.8 ± 13.4 mmHg
tolerability [1]: well tolerated

BMN-111: a CNP variant with increased NEP resistance in development for the treatment of achondroplasia (PGQEHPNARKYKGANKKGLSKGCFGLKLDRIGSMSGLGC; disulfide 23-39; chains of the INN, looked up)
haemodynamic effect (healthy volunteers [2]): mild hypotension

CNP: C-type natriuretic peptide as named in the background section
half-life [3]: 2 min
effect on blood pressure and heart rate (healthy volunteers [4]): transient but significant decrease in both systolic and diastolic blood pressure with a significant increase in heart rate

Permanent Lys16 CNP-34 PEG 5 kDa Conjugate (PNARKYKGANKKGLSK(PEG 5 kDa)GCFGLKLDRIGSMSGLGC; cysteine pairing not given here; UniProt P23582 93-126, looked up, fragment) [Compound 17e]
half life norm. (recombinant human NEP): 54.23 h

Permanent Lys22 CNP-34 PEG 5 kDa Conjugate [Compound 18e]
half life norm. (recombinant human NEP): 38.87 h

Permanent Lys26 CNP-38 PEG4×10 kDa Conjugate [Compound 12g]
half life norm. (recombinant human NEP): Almost no proteolysis
bioavailability ([5]; cynomolgus monkey, in vivo): ca. 50%
dose site reactions ([5]; cynomolgus monkey, in vivo): No dose site reactions were observed
half life time of CNP-38 content ([5]; cynomolgus monkey, in vivo, iv): approx. 24 h
tolerability of dose administrations ([5]; single intravenous or subcutaneous, 0.146 mg CNP-38 eq/kg): well tolerated

Permanent Lys26 CNP-38 PEG 5 kDa Conjugate (LQEHPNARKYKGANKKGLSKGCFGLK(PEG 5 kDa)LDRIGSMSGLGC; cysteine pairing not given here; UniProt P23582 89-126, looked up, fragment) [Compound 19e]
half life norm. (recombinant human NEP): 62.76 h

Permanent N-Terminal CNP-38 PEG 5 kDa Conjugate ({PEG 5 kDa}-LQEHPNARKYKGANKKGLSKGCFGLKLDRIGSMSGLGC; disulfide 22-38; also: permanent PEG attachment; UniProt P23582 89-126, looked up, fragment) [Compound 15e]
half life norm. (recombinant human NEP): Almost no proteolysis

Reversible Lys26 CNP-38 PEG2×20 kDa Conjugate (LQEHPNARKYKGANKKGLSKGCFGLKLDRIGSMSGLGC; not fully specified (residue 26); ends and bridges not checked; also: reversible linker structure not given here; UniProt P23582 89-126, looked up, fragment) [Compound 10f]
dose site reactions [6]: No dose site reactions were observed
tolerability of dose administrations [7]: well tolerated

Reversible Lys26 CNP-38 PEG4×10 kDa Conjugate (LQEHPNARKYKGANKKGLSKGCFGLK([reversible linker-PEG 4×10 kDa])LDRIGSMSGLGC; ends and bridges not checked; also: reversible linker structure not given here; UniProt P23582 89-126, looked up, fragment) [Compound 11i]
HR (heart rate) (Male Crl:CD1(ICR) mice): not impacted
MAP 5 min post dose (mean ± SD) (Male Crl:CD1(ICR) mice): 122.8 ± 5.9 mmHg
MAP 15 min post dose (mean ± SD) (Male Crl:CD1(ICR) mice): 121.5 ± 7.5 mmHg
MAP 30 min post dose (mean ± SD) (Male Crl:CD1(ICR) mice): 111.5 ± 13.7 mmHg
blood pressure (conclusion) (Male Crl:CD1(ICR) mice): did not decrease blood pressure
change in MAP at the 5, 15, and 30 min post dose sampling time points (in words) (Male Crl:CD1(ICR) mice): same physiological increase in MAP
dose site reactions [6]: No dose site reactions were observed
terminal half life [6]: 72 to 96 h
tolerability of dose administrations [7]: well tolerated
tolerability [8]: well tolerated
